Experiments:
[1] = test system: human T cells; test: T-cell migration assay towards SDF-1α, human T cells; assay type: cell-based; conditions: 1 hr pre-incubation
Description: Human cells. […] Human umbilical cord vein endothelial cells (HUVEC) were isolated from umbilical cord veins and cultured as described (Ponomaryov et al., 2000). Primary cultures were serially passaged, and passages 2 and 3 were taken for experiments.
T-cell migration assay. Migration of ^51[Cr]-labeled human and mouse T cells through FN or endothelial cells to recombinant human SDF-1α was examined in 48-well Transwell chemotaxis apparatus (5-μm pore filters, 6.5-mm diameter; Corning, N.Y.), as previously described (Zanin-Zhorov et al., 2003b). For transendothelial migration assays, 2×10^4 cells of HUVEC were layered on the filters and grown in 10% FCS M199 for 2 days before the performance of each assay. Then, HUVEC were stimulated with TNF-α (50 ng/ml) for 24 hr and washed.

[2] = test system: SOCS3; test: SOCS3 expression in mouse lymphocytes / T cells (immunoblot); assay type: cell-based; conditions: for SOCS3 expression: 1 ng/ml, 1 hr
Description: Mice and mouse T cells. Female C57BL/6J were obtained from Harlan Olac (Bicester, U.K.). TLR2-knockout mice on the C57BL/6J background were kindly provided by Dr. S. Akira (Osaka University, Osaka, Japan). CD3^+ T cells were isolated by negative selection with anti-mouse antibody cocktail (Pan T cell kit; Miltenyi Biotec; CITY Germany). The labeled cells were then passed through separation columns (MidiMACS columns, Miltenyi Biotec). The purified cells (>97% T cells) were untreated or treated with HSP60 as described. Similarly, T cells were purified from the lymph nodes of BALB/c mice (females, 1.5 months of age).
Western blotting of T-cell lysates. T cells were incubated (24 hr, 37° C.) in starvation medium (RPMI medium without serum). Aliquots (5×10^6/sample) of the starved cells were preincubated (for various intervals) with different concentrations of HSP60 prior to exposure to SDF-1α (100 ng/ml, 10 min, 37° C., tissue culture conditions). These reactions were terminated by freezing the plates (−70° C., 10 min). The plates were thawed, and the cells solubilized by incubating (60 min, 4° C.) in lysis buffer [EDTA (0.5 mM), NaCL (150 mM), NaF (10 nM), Tris pH 7.5 (25 mM), Triton X-100 (1%), PMSF (200 pg/ml), and phosphatase inhibitor cocktail (1%)]. Lysates were cleared by centrifugation (30 min, 14×10^3 rpm, 4° C.), and the resulting supernatants analyzed for protein content. Sample buffer was added, the samples were boiled, and equal amounts of proteins were separated by 10% SDS-PAGE and transferred to nitrocellulose membranes. […] Phosphorylation levels of the 3-5 independent experiments were estimated by densitometry, and an average percentage of phosphorylation±SD was calculated as OD of pERK/tERK, or pPyk2/tPyk2, or pAKT/tAKT, pMLC/tMLC, or pSTAT3/tSTAT3×100%.

[3] = test system: human T cells; test: Cytokine secretion of anti-CD3-activated purified human T cells
Description: Human T cells. T cells were purified from the peripheral blood of healthy human donors (Blood Bank; Tel-Hashomer, Israel). The whole blood was incubated (20 min, 22° C.) with RosetteSep™ human T-cell enrichment cocktail (StemCell Technologies, Vencouver, BC, Canada). The remaining unsedimented cells were then loaded onto Lymphocyte Separation Medium (ICN Biomedicals; Belgium), isolated by density centrifugation, and washed with PBS. The purified cells (>95% CD3^+ T cells) so obtained were cultured in RPMI containing antibiotics and 10% heat-inactivated FCS.
Cytokine secretion. T cells (2×10^6 cells per ml) were activated (1 hr, 37° C.) with the indicated concentrations of HSP60 in 24-well plates in RPMI containing 10% heat-inactivated FCS. The cells were then washed and re-plated at the same concentration on anti-CD3 mAb pre-coated 24-well plates (0.5 μg/ml; non tissue culture grade plates) in serum free medium containing 0.1% BSA at 4° C. for 24 hr. The supernatants were collected, and the cytokine content (TNF-α, IFN-γ, and IL-10) was determined by ELISA, using the appropriate mAb, according to the manufacturer's instructions.

[4] = test system: DTH; test: DTH assay (adoptive transfer, oxazolone); assay type: in vivo, BALB/c mice; conditions: oxazolone-reactive lymph node cells exposed in vitro to 1 μg/ml for 1 hr; ear swelling 24 hr
Description: DTH assays. BALB/c mice (females; 1.5 months of age) were sensitized by painting of their shaved abdominal walls with Oxazolone (2%) emulsified in 100 μl of acetone/olive oil (Sigma-Aldrich). On day 5, mice were sacrificed, their draining (inguinal, mesenteric, and cervical) lymph nodes were collected, and a single cell suspension was prepared. The cells were treated with HSP60 (1 μg/ml; 1 hr; tissue culture conditions), washed, and injected (5×10^7 cells per mouse) i.v. into the tails of naive mice (at least 6 mice per group). Painting of the earlobes with oxazolone (10 μl of 0.5% in acetone/olive oil), which generates a DTH response, was performed immediately after cell inoculation. The area of the ears that was painted was measured before challenge and 24 hr later with a micrometer. Changes in earlobe thickness are indicative of DTH reactivity. All animal studies were performed in compliance with and were approved by laws and animal welfare guidelines of The Weizmann Institute of Science (IACUC).

[5] = test system: ERK, Pyk2, AKT, MLC; test: Western blotting of T-cell lysates (phosphorylation) and cell morphology; assay type: cell-based, human
Description: Western blotting of T-cell lysates. T cells were incubated (24 hr, 37° C.) in starvation medium (RPMI medium without serum). Aliquots (5×10^6/sample) of the starved cells were preincubated (for various intervals) with different concentrations of HSP60 prior to exposure to SDF-1α (100 ng/ml, 10 min, 37° C., tissue culture conditions). These reactions were terminated by freezing the plates (−70° C., 10 min). The plates were thawed, and the cells solubilized by incubating (60 min, 4° C.) in lysis buffer [EDTA (0.5 mM), NaCL (150 mM), NaF (10 nM), Tris pH 7.5 (25 mM), Triton X-100 (1%), PMSF (200 pg/ml), and phosphatase inhibitor cocktail (1%)]. Lysates were cleared by centrifugation (30 min, 14×10^3 rpm, 4° C.), and the resulting supernatants analyzed for protein content. Sample buffer was added, the samples were boiled, and equal amounts of proteins were separated by 10% SDS-PAGE and transferred to nitrocellulose membranes. The membranes were blocked with TBST buffer [Tris pH 7.5 (20 mM), NaCl (135 mM) and Tween 20 (0.1%)] containing low-fat milk (5%), and probed with the following mAb in the same buffer: anti-phosphorylated (p) ERK (0.2 μg/ml), anti-total (t) ERK (diluted 1:20,000), anti-pPyk2 (1.5 μg/ml), anti-tPyk2 (0.2 μg/ml), anti-pAKT (diluted 1:1000), anti-tAKT (diluted 1:1000), anti-pMLC (diluted 1:250), and anti-tMLC (diluted 1:1000), anti-pSTAT3 (diluted 1:250), and anti-STAT3 (diluted 1:500). Immunoreactive protein bands were visualized using a horseradish peroxidase-conjugated goat anti-mouse Ab and the enhanced ECL system. Phosphorylation levels of the 3-5 independent experiments were estimated by densitometry, and an average percentage of phosphorylation±SD was calculated as OD of pERK/tERK, or pPyk2/tPyk2, or pAKT/tAKT, pMLC/tMLC, or pSTAT3/tSTAT3×100%.
Cell morphology. T cells (3×10^6 cells/ml) were seeded in flat-bottom, 24-well plates in 500 μl of RPMI on coverslips coated with FN (25 μg/ml). Some T cells were pretreated (1 hr, 37° C., in a 7.5% CO2 humidified atmosphere) with anti-TLRs mAb (20 μg/ml), and then with HSP60 (1 hr). After which, SDF-1α (200 ng/ml) was added, and the cells allowed to adhere (30 min, 37° C., in a 7.5% CO2 humidified atmosphere). The cells were then fixed in 3.7% paraformaldehyde and permeabilized (5 min, room temperature) with 0.5% TritonX-100. For actin visualization, cells were stained with rhodamine-labeled phalloidin (diluted 1/100), and examined with a laser-scanning confocal microscope (LSM510, Zeiss).

[6] = human T cells, SDF-1α 100 ng/ml, 10 min

B1: HSP60: recombinant human heat shock protein 60 (StressGen Biotechnologies) (protein)
chain: AKDVKFGADARALMLQGVDLLADAVAVTMGPKGRTVIIEQSWGSPKVTKDGVTVAKSIDLKDKYKNIGAKLVQDVANNTNEEAGDGTTTATVLARSIAKEGFEKISKGANPVEIRRGVMLAVDAVIAELKKQSKPVTTPEEIAQVATISANGDKEIGNIISDAMKKVGRKGVITVKDGKTLNDELEIIEGMKFDRGYISPYFINTSKGQKCEFQDAYVLLSEKKISSIQSIVPALEIANAHRKPLVIIAEDVDGEALSTLVLNRLKVGLQVVAVKAPGFGDNRKNQLKDMAIATGGAVFGEEGLTLNLEDVQPHDLGKVGEVIVTKDDAMLLKGKGDKAQIEKRIQEIIEQLDVTTSEYEKEKLNERLAKLSDGVAVLKVGGTSDVEVNEKKDRVTDALNATRAAVEEGIVLGGGCALLRCIPALDSLTPANEDQKIGIEIIKRTLKIPAMTIAKNAGVEGSLIVEKIMQSSSEVGYDAMAGDFVNMVEKGIIDPTKVVRTALLDAAGVASLLTTAEVVVTEIPKEEKDPGMGAMGGMGGGMGGGMF
B1 was tested, and the “SDF-1α-induced T-cell chemotaxis through TNF-α-activated endothelial cells” value [1] was “significant inhibition of T-cell chemotaxis toward SDF-1α”, the “SDF-1α-induced T-cell chemotaxis through fibronectin” value ([1]; various concentrations) was “significant inhibition of T-cell chemotaxis toward SDF-1α” and the “expression of SOCS3” value ([2]; BALB/c lymph node cells) was “induced the expression of SOCS3 in BALB/c lymph node cells”. The SOCS3 expression ([2]; T cells from TLR2-knockout mice) was “SOCS3 expression remained at the low levels of untreated cells”, the SOCS3 expression ([2]; wild type C57BL/6J-derived T cells) was “induced SOCS3 expression at levels similar to those induced by HSP60 in human T cells” and the “effect on cytokine secretion at doses in the order of 10 ng/ml” value [3] was “did not appear to affect cytokine secretion”. For the same molecule, the “secretion of IL-4 and IL-13” value [3] was “increases the secretion”, the “cytokine secretion without anti-CD3” value ([3]; HSP60 alone) was “did not induce cytokine secretion from the T cells” and the “higher concentrations at which cytokine secretion was again affected” value ([3]; P<0.05) was 0.1 to 1 µg/mL. The “low concentrations with significant effects on cytokine secretion” value ([3]; P<0.05) was 0.1 to 1.0 ng/mL, the “inhibition of ability to adoptively transfer DTH” value [4] was 50% and the SDF-1α-induced polarized morphology ([5]; FN-coated coverslips, HSP60 1 μg/ml) was “inhibits”. For the same molecule, the “SDF-1α-induced phosphorylation of MLC” value ([5]; HSP60 1 hr then SDF-1α 100 ng/ml, 10 min) was “inhibits SDF-1α-induced phosphorylation of MLC”, the “phosphorylation of MLC” value ([5]; HSP60 1 hr, no SDF-1α) was “induces phosphorylation of MLC” and the “SDF-1α-induced AKT phosphorylation” value [5, 6] was “inhibits”. The “SDF-1α-induced ERK phosphorylation” value [5, 6] was “inhibits” and the “SDF-1α-induced Pyk2 phosphorylation” value [5, 6] was “inhibits”.
